B1: clone F42: Taxus cuspidata cytochrome P450 oxygenase, full-length clone, SEQ ID NO: 45 (nt) / 58 (aa) (protein, listed as Taxus cuspidata)
chain: MDSFSFLKSMEAKFGQVIHRDQSSSTALLSLAFTAAVAIFLVLLFRFKSRPSTNFPPGNFGFPFIGETIQFLRALRSESPHMFFDERLKKFGRVFKTSLTGHPTAVFCGPAGNRFIYSNEHKLVQSSGPNSFVKLVGQQSIVTKTGEEHRIFLGVLNEFLGPHALQSYTPKMSSKIQENINKHWKGKDEVNMLPSIRQLVFSISSSLFFDINDEDQQEQLKTLLETILVGTLSVPLDIPGSNFRKALRARSKLDEILSRLIESRRKDMRSGIASTSKNLLSVLLAFKDERGNPLTDTEILDNFSFMLHASYDTTVSPTVCIFKLLSANPECYEKVVQEQLGILGNKKDGEEMCWNDLKAMKYTWQAAQETMRLFPPAFGSFRKVIADIHHDGYIIPKGWKAMVTNYSTSRKEEYFDEPDNFKPSRFGDGKYVAPYTFLPFGAGIRICPGWEFAKLEMLLFIHHFVKNFSGYLPLDTKEKISGDPFPPLPKNGFPIKLFPRT
B2: clone F56: Taxus cuspidata cytochrome P450 oxygenase, full-length clone, SEQ ID NO: 49 (nt) / 62 (aa) (protein, listed as Taxus cuspidata)
chain: MDTLIQIQSSPDFLSFTLTAFLGVVVLLIFRYKHRSALKLPPGNLGLPFIGETITFASQPPQKFLNERGKKFGPVFKTSLIGHPTVVLCGSSGNRFLLSNEEKLVRMSLPNSYMKLLGQDSLLGKTGQEHRIVRTALGRFLGPQELQNHVAKMSSDIQHHINQKWKGNDEVKVLPLIRNLVFSIATSLFFGINDEHQQERLHLLLETIVMGAVCIPLAFPGSGFRKALQARSELDGILISLMKIRRSDLRSGAASSNQDLLSVLLTFKDERGNPLTDKEILDNFSVLLHGLYDTTISPLTLIFKLMSSNTECYENVVQEQLEILSHREKGEEIGWKDLKSMKYTWQAIQETLRMFPPVYGNFRKALTDIHYDGYTIPKGWRVLCSPFTTHSNEEYFNEPDEFRPSRFEGQGKNVPSYTFIPFGGGLRICPGWEFAKTEMLLFIHYFVKTFSSYVPVDPNEKISADPLASFPVNGFSVKLFPRS
B3: clone F19: Taxus cuspidata cytochrome P450 oxygenase, full-length clone, SEQ ID NO: 50 (nt) / 63 (aa) (protein, listed as Taxus cuspidata)
chain: MDAFNILKGPAAKLNGVVQLGSYTDRILSITVVAFITILLLLMLRWKSQSSVKLPPGNFGFPLIGETLQLLRAFRSNTTQQFFDERQKKFGCVFKTSLVGERTVVLCGPSGNRLVLANQNKVVESSWPSAFIKLIGEDSIANTNGEKHRILRAALLRYLGPGSLQNYVGKMRSEIEHHINEKWKGKDEVKVLDLVRKNVFSVATALFFGVNDEERKRIRPPSILRKLHFAGSFSIPLDFPGTSYRRALEARLKLDKILSSLIERRRSDLRSGLASGNEDLVSVLLTFKDEGGNPLTDKEILDNFSGLLHASYDTTTSALTLTFKLMSSSAECYDKVVQEQLRIVSNKKEGEEISLKDLKDMKYTWQVVQETLRMFPPLFGSFRKTIADIQYDGYTIPKGWKVLWATYTTHGRDEYFSEPQKFRPSRFEEGGKHVAPYTFLPFEGGERTCPGYEFSKTHILLFIHQFVKTFTGYIPLDPNESISANPLPPLPANGFPVKLFQRS
B4: clone F10: Taxus cuspidata cytochrome P450, outlying full-length clone, SEQ ID NO: 55 (nt) / 68 (aa) (protein, listed as Taxus cuspidata)
chain: MAFEAATVILFTLAALLLVVIQRRRIRRHKLQGKVKAPQPPSWPVIGNLHLLTQKVPIHRILSSLSESYGPIMHLQLGLRPALVIASSDLAKECFTTNDKAFASRPRLSAGKHVGYDYKIFSMAPYGSYWRNLRKMCTIQILSATRIDSFRHIRVEEVSALIRSLFDSCQREDTPVNMKARLSDLTFSIILRMVANKKLSGPVYSEEYEEADHFNQMIKQSVFLLGAFEVGDFLPFLKWLDLQGFIAAMKKLQQKRDVFMQKLVIDHREKRGRVDANAQDLIDVLISATDNHEIQSDSNDDVVKATALTMLNAGTDTSSVTIEWALAALMQHPHILSKAQQELDTHIGRSRLLEEADLHELKYLQAIVKETLRLYPAAPLLVPHEAIEDCTVGGYHVSAGTRLIVNAWAIHRDPAVWERPTVFDPERFLKSGKEVDVKGREFELIPFGSGRRMCPGMSLALSVVTYTLGRLLQSFEWSVPEGMIIDMTEGLGLTMPKAVPLETIIKPRLPFHLY
B5: clone F55: Taxus cuspidata cytochrome P450 oxygenase, full-length clone, SEQ ID NO: 52 (nt) / 65 (aa) (protein, listed as Taxus cuspidata)
chain: METKFGQLMQLEFLPFILTPILGALVLLHLFRHRNRSSVKLPPGKLGFPVIGETIQFLRALRSQTPQKFFDDRVQKFGGVFKTSLIGNPLVVMCGPAGNRLVLSNEDKLVQLEAPNSLMKLMGQDSLLAKRQEDHRTLRAALARFLGPQALXNYMTKISSRTEHHMNEKWKGKDEVRTLPLIRELIFSNASSLFFDINDEHQQERLHHLLEAVVVGSMSIPLDFPGTRLRKALQARSKLDEILSSLIKSRRKDLVSGIASDDQDLLSVLLTFKDERGNPLTDKEILDNFSLLLHASYDTTVSPMVLTLKLLSSNPECYEKVVQEQLGIVANKRIGEEISWKDLKAMKYTWQVVQETLRMFPPLFGSFRKAMVDIDYDGYTIPKGWMILWTTYGTHLREEYFNEPLKFRPSRFEEDGRVTPYTFIPFGGGARTCPGWEFSKTEILLFIHHFVRTFSSYLPVDSNEKISADPFPPLPANGFSIKLSADPFPPLPANGFSIKLFPRSQSN
modifications: not fully specified; (1)..(507) “Xaa” equals any peptide
B6: clone F23: Taxus cuspidata cytochrome P450 oxygenase, full-length clone, SEQ ID NO: 84 (nt) / 90 (aa) (protein, listed as Taxus cuspidata)
chain: MELWNMFLPWISIATATSLTVGMASAFAIIYAPLLLSFLRLKTARRNMPPIPPGSMGMPFWGESLGYLGSWNNQSNPDVWYDTRKAKHGKIFTTHILGSPTVVMLGPDANRFILINENKLFLNSWPKSLNALIGKHALITSQGAEHKRMRRIIHSVLGPRNPETSVGRFEGLVLHHLDSDWHGGQIIQAYRQVKDMALCLAADFFMGLKPGKELETFRRHFSDFSAGLLSHPLDLPWTVFGKAKRARAAMVTQIFSQIRLHRTSMHKSGEEGGNFLDMVLGSQEKGGDLRLSEEEIADNLMGLLTGGQDTTASALATILKHLSLSPHLLQRLRKECEKLRDNKEAGGPLTWSEIKSVGYLHNVISEGLRMVAPINGGFKKAKVDVVYGGYTIPKGWKVHYSVRQTNNKEEYFPSPERFDPDRFNERHEPFSFIPFGQGNRMCPGNEFARLEMELFLYHLVLRYDWELMEADERTNMYFIPHPVHSLPLLLKHVPPT

Experiment: In vivo assay of yeast cells expressing recombinant oxygenases, radio-HPLC, substrate taxadien-5α-ol
Assay type: cell-based, Saccharomyces cerevisiae
Details: assayed with Taxadien5αol; graded symbols, key not given
From the text: (§1) Transformed yeast cells that fimctionally express a recombinant cytochrome P450 gene from Taxus (by CO-difference spectrum) can be tested in vivo for their ability to oxygenate (hydroxylate or epoxidize) taxoid substrates fed exogenously to the cells, thereby eliminating the need for microsome isolation for preliminary in vitro assays.
(§2) Accordingly, several clones of the available full-length clones were expressed in induced yeast host cells.
(§3) Isolated transformants for each full-length cytochrome P450 clone shown to express a functional enzyme by CO-difference spectrum (ten clones) were grown to stationary phase in 2 mL SGI medium at 30° C. and used to inoculate a 10-mL expression culture (in YPL medium). Approximately 8 hours after induction, cells were harvested by centrifugation (10 minutes at 1500 rpm), and the pellet was resuspended in 2 mL of fresh YPL medium.
(§4) To eliminate additional complication and uncertainty associated with microsome isolations for in vitro assays, 10^6 dpm of [20-^3H3]taxa-4(5),11(12)-diene (16 Ci/mol) or [20-^3H2]taxa-4(20),11(12)-diene-5-α-ol (4.0 Ci/mol), or other taxoid substrate were added directly to the cell suspension to assay conversion in vivo. After 12 hours of incubation at 30° C. with agitation (250 rpm), the mixture was treated for 15 minutes in a sonication bath and extracted 3 times with 2 mL diethyl ether to insure isolation of the biosynthetic products. These ether extracts, containing residual substrate and derived product(s), were concentrated to dryness, resuspended in 200 μL of CH3CN, and filtered. These samples were analyzed by radio-HPLC (Hefner et al., Chemistry and Biology 3:479–489, 1996) using a 4.6 mm i.d.×250 mm column of Econosil C18, 5 μ (Alltech, Deerfield, Ill.) with a gradient of CH3CN in H2O from 0% to 85% (10 minutes at 1 mL/minute), then to 100% CH3CN over 40 minutes.

| Molecule | product identified HPLC peak |
| --- | --- |
| B1 | No |
| B2 | No |
| B3 | No |
| B4 | No |
| B5 | No |
| B6 | No |

Experiment: In vivo assay of yeast cells expressing recombinant oxygenases, radio-HPLC, substrate taxadiene
Assay type: cell-based, Saccharomyces cerevisiae
Details: assayed with Taxadiene; graded symbols, key not given
From the text: as §1, §2, §3, §4

| Molecule | product identified HPLC peak |
| --- | --- |
| B1 | No |
| B2 | No |
| B3 | No |
| B4 | No |
| B5 | No |
| B6 | No |

Experiment: not given
Assay type: binding, Saccharomyces cerevisiae
Details: not given
From the text: CO-sensor of the 19 full-length cytochrome P450 clones from Taxus, thus far obtained, ten have yielded detectable CO-difference spectra (Table 2). […] These alternative expression systems for cytochrome P450 genes include the yeast Pichia pastoris, for which expression vectors and hosts are commercially available (Invitrogen, Carlsbad, Calif.), as well as established E. coli and baculovirus-insect cell systems for which general expression procedures have been described (Barnes, Methods Enzymol. 272:1–14, 1996;Gonzalez et al., Methods Enzymol. 206:93–99, 1991;Lee et al., Methods Enzymol. 272:86–98, 1996;and Lupien et al., Arch. Biochem. Biophys. 368:181–192, 1999).
Appropriate restriction sites were introduced by standard PCR methods (Innis et al., PCR Protocols: A Guide to Methods and Applications, Academic Press, San Diego, Calif., 1990) immediately upstream of the ATG start codon and downstream of the stop codon of all full-length cytochrome P450 clones. These modified amplicons were gel-purified, digested with the corresponding restriction enzymes, and then ligated into the expression vector pYeDP60. The vector/insert junctions were sequenced to ensure that no errors had been introduced by the PCR construction. Verified clones were transformed into yeast using the lithium acetate method (Ito et al., J. Bacteriol. 153:163–168, 1983). Isolated transformants were grown to stationary phase in SGI medium (Pompon et al., Methods Enzymol. 272:51–64, 1996), and used as inocula for a large-scale expression culture grown in YPL medium (Pompon et al., Methods Enzymol. 272:51–64, 1996). Approximately 24 hours after induction of cytochrome P450 expression with galactose (to 10% final concentration), a portion of the yeast cell culture was harvested by centrifugation. One-half of the culture was treated with carbon monoxide, and the cytochrome P450 CO-difference spectrum was recorded directly (using untreated cells as a control) by spectrophotometry (Omura and Sato, J. Biol. Chem. 239:2370–2378, 1964).

| Molecule | CO diff. spec. |
| --- | --- |
| B1 | − |
| B2 | − |
| B3 | − |
| B4 | + |
| B5 | − |
| B6 | − |

— US7005283B2, “Cytochrome P450 oxygenases and their uses” (Washington State University Research Foundation, priority 1999, dated 2006)
